Target: prostate specific antigen (PSA) (UniProt P07288 25-261)
Assay: photoelectrochemical aptasensor (photocurrent decrease); PBS pH 7.4, aptamer immobilised on FTO/In2O3-ZnIn2S4, BSA blocked; linear 0.001-50 ng/mL, LOD 0.00037 ng/mL (not a Kd); PSA incubated 30 min at room temperature on aptamer electrode; 0.01 M PBS pH 7.4 as incubation/wash buffer; photocurrent read in 0.1 M ascorbic acid

Sequence of prostate specific antigen (PSA) (P07288 25-261): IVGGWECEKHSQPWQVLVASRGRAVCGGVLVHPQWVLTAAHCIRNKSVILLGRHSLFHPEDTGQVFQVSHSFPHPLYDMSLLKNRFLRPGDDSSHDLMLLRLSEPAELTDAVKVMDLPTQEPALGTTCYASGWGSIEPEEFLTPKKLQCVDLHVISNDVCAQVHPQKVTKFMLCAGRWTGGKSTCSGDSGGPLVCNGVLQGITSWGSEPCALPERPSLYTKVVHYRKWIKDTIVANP

B1: PSA aptamer (ssDNA)
DNA: ATTAAAGCTCGCCATCAAATAGC
modifications: 5'-NH2-(CH2)6
B1: binds.
